The record followed here is PMC6554336, “C3-Glomerulopathy Autoantibodies Mediate Distinct Effects on Complement C3- and C5-Convertases” (Frontiers in Immunology, 2019).

The target in this experiment is T1, C3b (UniProt P01024 23-667; P01024 749-1663).
T1 construct: Coated on the microtiter plate at 5 ug/ml; source: bought: CompTech
In words: ELISA; C3-convertase assembled on coated C3b in the presence of patient IgGs for 45 min, then Factor H (20 ug/ml) added, 37°C; convertase-bound Bb detected at 15, 30 or 45 min with Factor B polyclonal antiserum, OD 450 nm. The conditions noted are these: both partners purified. (ELISA stands for enzyme-linked immunosorbent assay.)

T1 sequence (P01024 23-667, chain 1 of 2): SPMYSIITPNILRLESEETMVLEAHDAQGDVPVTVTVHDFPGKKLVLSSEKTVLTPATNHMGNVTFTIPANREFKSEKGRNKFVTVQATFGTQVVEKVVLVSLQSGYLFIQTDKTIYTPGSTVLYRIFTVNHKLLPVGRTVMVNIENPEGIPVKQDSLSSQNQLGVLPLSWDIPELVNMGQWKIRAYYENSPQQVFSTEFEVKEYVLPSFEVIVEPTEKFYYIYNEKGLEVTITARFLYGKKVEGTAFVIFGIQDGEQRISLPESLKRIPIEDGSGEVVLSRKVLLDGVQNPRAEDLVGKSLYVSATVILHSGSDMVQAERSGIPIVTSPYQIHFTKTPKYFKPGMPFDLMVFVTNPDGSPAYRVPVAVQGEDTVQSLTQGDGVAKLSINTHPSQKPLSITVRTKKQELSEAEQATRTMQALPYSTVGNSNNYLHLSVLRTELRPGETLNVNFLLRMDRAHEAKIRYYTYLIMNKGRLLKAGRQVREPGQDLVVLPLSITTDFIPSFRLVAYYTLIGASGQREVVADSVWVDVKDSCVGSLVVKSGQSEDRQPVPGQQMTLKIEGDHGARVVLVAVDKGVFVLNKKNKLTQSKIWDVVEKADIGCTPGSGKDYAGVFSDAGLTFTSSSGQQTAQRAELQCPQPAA
T1 sequence (P01024 749-1663, chain 2 of 2): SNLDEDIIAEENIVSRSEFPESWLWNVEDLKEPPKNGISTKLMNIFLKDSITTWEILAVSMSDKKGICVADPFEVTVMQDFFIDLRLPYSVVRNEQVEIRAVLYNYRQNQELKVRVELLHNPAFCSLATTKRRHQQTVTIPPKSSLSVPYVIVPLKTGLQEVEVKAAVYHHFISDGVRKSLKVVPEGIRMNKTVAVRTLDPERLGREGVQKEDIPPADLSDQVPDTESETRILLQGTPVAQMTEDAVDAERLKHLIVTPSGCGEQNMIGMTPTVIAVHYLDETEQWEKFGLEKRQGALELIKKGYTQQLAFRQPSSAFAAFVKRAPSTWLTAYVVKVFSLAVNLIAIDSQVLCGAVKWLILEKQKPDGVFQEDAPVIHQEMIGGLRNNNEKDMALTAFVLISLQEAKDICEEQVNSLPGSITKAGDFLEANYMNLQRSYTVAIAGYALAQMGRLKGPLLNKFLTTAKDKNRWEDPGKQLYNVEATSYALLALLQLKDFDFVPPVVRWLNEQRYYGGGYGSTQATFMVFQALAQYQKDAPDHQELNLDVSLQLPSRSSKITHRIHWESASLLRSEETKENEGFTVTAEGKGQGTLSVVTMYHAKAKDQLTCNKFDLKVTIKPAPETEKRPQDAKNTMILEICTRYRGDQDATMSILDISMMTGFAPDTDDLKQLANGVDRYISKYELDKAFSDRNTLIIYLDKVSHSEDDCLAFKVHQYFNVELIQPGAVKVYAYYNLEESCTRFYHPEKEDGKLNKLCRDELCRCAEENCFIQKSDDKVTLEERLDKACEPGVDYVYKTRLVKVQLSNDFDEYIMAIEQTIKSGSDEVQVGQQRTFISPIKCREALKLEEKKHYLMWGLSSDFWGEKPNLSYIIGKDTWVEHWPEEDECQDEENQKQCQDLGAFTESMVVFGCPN

B1: Factor H (natural protein, UniProt P08603 19-1231, looked up)
chain: EDCNELPPRRNTEILTGSWSDQTYPEGTQAIYKCRPGYRSLGNVIMVCRKGEWVALNPLRKCQKRPCGHPGDTPFGTFTLTGGNVFEYGVKAVYTCNEGYQLLGEINYRECDTDGWTNDIPICEVVKCLPVTAPENGKIVSSAMEPDREYHFGQAVRFVCNSGYKIEGDEEMHCSDDGFWSKEKPKCVEISCKSPDVINGSPISQKIIYKENERFQYKCNMGYEYSERGDAVCTESGWRPLPSCEEKSCDNPYIPNGDYSPLRIKHRTGDEITYQCRNGFYPATRGNTAKCTSTGWIPAPRCTLKPCDYPDIKHGGLYHENMRRPYFPVAVGKYYSYYCDEHFETPSGSYWDHIHCTQDGWSPAVPCLRKCYFPYLENGYNQNYGRKFVQGKSIDVACHPGYALPKAQTTVTCMENGWSPTPRCIRVKTCSKSSIDIENGFISESQYTYALKEKAKYQCKLGYVTADGETSGSITCGKDGWSAQPTCIKSCDIPVFMNARTKNDFTWFKLNDTLDYECHDGYESNTGSTTGSIVCGYNGWSDLPICYERECELPKIDVHLVPDRKKDQYKVGEVLKFSCKPGFTIVGPNSVQCYHFGLSPDLPICKEQVQSCGPPPELLNGNVKEKTKEEYGHSEVVEYYCNPRFLMKGPNKIQCVDGEWTTLPVCIVEESTCGDIPELEHGWAQLSSPPYYYGDSVEFNCSESFTMIGHRSITCIHGVWTQLPQCVAIDKLKKCKSSNLIILEEHLKNKKEFDHNSNIRYRCRGKEGWIHTVCINGRWDPEVNCSMAQIQLCPPPPQIPNSHNMTTTLNYRDGEKVSVLCQENYLIQEGEEITCKDGRWQSIPLCVEKIPCSQPPQIEHGTINSSRSSQESYAHGTKLSYTCEGGFRISEENETTCYMGKWSSPPQCEGLPCKSPPEISHGVVAHMSDSYQYGEEVTYKCFEGFGIDGPAIAKCLGEKWSHPPSCIKTDCLSLPSFENAIPMGEKKDVYKAGEQVTYTCATYYKMDGASNVTCINSRWTGRPTCRDTSCVNPPTVQNAYIVSRQMSKYPSGERVRYQCRSPYEMFGDEEVMCLNGNWTEPPQCKDSTGKCGPPPPIDNGDITSFPLSVYAPASSVEYQCQNLYQLEGNKRITCRNGQWSEPPKCLHPCVISREIMENYNIALRWTAKQKLYSRTGESVEFVCKRGYRLSSRSHTLRTTCWDGKLEYPTCAKR
notes: complement Factor H; Used at 20 ug/ml; source: bought: CompTech
In the case of B1, the binding result is “binds”.
